Measured values taken from article PMC4117788, “Structural dynamics of the two-component response regulator RstA in recognition of promoter DNA element” (Nucleic Acids Research, 2014).

Key:
[1] = target: Klebsiella pneumoniae RstA N-terminal receiver domain (Klebsiella pneumoniae) (UniProt A6T8N1); test: NMR line-widths; inactive kpRstA RD (without BeF3-) at high concentrations; data not shown
[2] = target: T1, kpRstA full-length (Klebsiella pneumoniae, UniProt A6T8N1 1-239); test: ITC; without BeF3-, 7 mM MgCl2; sequential model, KD1; ITC 25 C: 20 mM Tris pH 7.5, 100 mM NaCl (DBD); plus 7 mM MgCl2 with or without 5.3 mM BeSO4 and 35 mM NaF (full-length). NMR of complex: 20 mM Na phosphate pH; settings: protein: recombinant; tags: His-tag removed by thrombin; N-terminal GSAMA remains; chain copies: 2
T1 sequence: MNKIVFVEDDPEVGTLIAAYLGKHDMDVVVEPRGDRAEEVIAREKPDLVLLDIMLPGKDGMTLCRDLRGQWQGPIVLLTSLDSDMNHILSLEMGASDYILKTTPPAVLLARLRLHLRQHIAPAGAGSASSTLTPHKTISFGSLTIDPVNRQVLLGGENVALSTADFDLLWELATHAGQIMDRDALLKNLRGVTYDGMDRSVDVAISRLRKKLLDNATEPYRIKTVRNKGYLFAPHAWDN

[3] = target: T2, kpRstA DBD (Klebsiella pneumoniae, UniProt A6T8N1 130-236); test: ITC; sequential model, KD1 (first site); ITC 25 C: 20 mM Tris pH 7.5, 100 mM NaCl (DBD); plus 7 mM MgCl2 with or without 5.3 mM BeSO4 and 35 mM NaF (full-length). NMR of complex: 20 mM Na phosphate pH; settings: protein: recombinant; tags: N-terminal M-6H-AMG; chain copies: 2
T2 sequence: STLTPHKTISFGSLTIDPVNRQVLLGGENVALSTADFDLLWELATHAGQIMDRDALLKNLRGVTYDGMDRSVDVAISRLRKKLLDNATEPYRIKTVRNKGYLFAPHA

[4] = target: kpRstA DBD R207A (Klebsiella pneumoniae, UniProt A6T8N1 130-236, R207A); test: ITC; binding completely abolished; DNA-16a per Figure 1E legend (Table 1 says DNA-22); ITC 25 C: 20 mM Tris pH 7.5, 100 mM NaCl (DBD); plus 7 mM MgCl2 with or without 5.3 mM BeSO4 and 35 mM NaF (full-length). NMR of complex: 20 mM Na phosphate pH; settings: protein: recombinant; tags: N-terminal M-6H-AMG; chain copies: 2
[5] = target: T2, kpRstA DBD; test: ITC; one-site model, N = 1.05 (text gives error 0.54); ITC 25 C: 20 mM Tris pH 7.5, 100 mM NaCl (DBD); plus 7 mM MgCl2 with or without 5.3 mM BeSO4 and 35 mM NaF (full-length). NMR of complex: 20 mM Na phosphate pH; settings: protein: recombinant; tags: N-terminal M-6H-AMG; chain copies: 2
[6] = target: the molecule itself; test: SEC; full-length kpRstA in the presence of BeF3-; data not shown

Molecule: Klebsiella pneumoniae RstA N-terminal receiver domain (from UniProt A6T8N1 1-119) (domain or fragment)
- stoichiometry N [1]: 2

B1: DNA-22 (dsDNA)
DNA 1: GTTGTACATTCCGTTACTCCCT
DNA 2: AGGGAGTAACGGAATGTACAAC
- Kd [2]: 45.5 ± 8.41 µM
- Kd [3]: 10.3 ± 1.14 µM

B2: DNA-16a (dsDNA)
DNA 1: ACGTTGTACATTCCGT
DNA 2: ACGGAATGTACAACGT
- binding result [4]: no binding
- Kd [5]: 8.17 ± 0.53 µM

B3: full-length Klebsiella pneumoniae RstA (natural protein)
chain: GSAMAMNKIVFVEDDPEVGTLIAAYLGKHDMDVVVEPRGDRAEEVIAREKPDLVLLDIMLPGKDGMTLCRDLRGQWQGPIVLLTSLDSDMNHILSLEMGASDYILKTTPPAVLLARLRLHLRQHIAPAGAGSASSTLTPHKTISFGSLTIDPVNRQVLLGGENVALSTADFDLLWELATHAGQIMDRDALLKNLRGVTYDGMDRSVDVAISRLRKKLLDNATEPYRIKTVRNKGYLFAPHAWDN
notes: RstA response regulator of Klebsiella pneumoniae, full length (RD residues 1-119, DBD residues 131-236); Cloned in a modified pET32a(+) lacking the enterokinase site; also called kpRstA; full-length kpRstA; source: E. coli BL21(DE3), purified (Ni-NTA, Superdex-75 SEC, thrombin digestion); not shown: His-tag, N-terminal, cleaved
- stoichiometry N [6]: 2
